The target in assay [1] is human CD3 on Jurkat cells (human) (UniProt P07766). The assay can be described thus: competition with 125I-UCHT1 tracer on Jurkat cells; competitor at 1 nM.
Assay [2] shares this target. The assay can be described thus: competition with 125I-UCHT1 tracer on Jurkat cells; competitor at 100 nM.
Assay [3] has the same target. The assay is described as follows: cell-based or functional assay.

The results in this text go back to patent EP0830146B1.

Regarding scUCHT1 (from UniProt P01871 106-453), the % of 125I-UCHT1 bound was 80% in assay [1] and 0% in assay [2].

Regarding UCHT1 (antibody), the % of 125I-UCHT1 bound in assay [1] came to 80%; in assay [2], 0%.

On to sFv-DT390 (from UniProt P00588 1-390), for which, in assay [3], the difference in IC50 against UCHT1-CRM9, protein synthesis inhibition stood at 16 fold and the protein synthesis (% of controls), no serum, 1 x 10^-10 M on Jurkat cells (% of controls) was found to be 18.
